Results on three molecules are retold here after patent publication US20140274901A1, “PROANP COMPOSITIONS AND METHODS FOR TREATING ACUTE HEART FAILURE” (Mayo Foundation for Medical Education and Research, priority 2013, published 2014).

Where two headings read alike, the source gives them in different places.

Series [1] can be described thus: in vivo. The conditions noted are these: dog, iv, 667 pmol/kg.
Description: (§3) Blood samples were obtained from aorta and renal vein and urine is obtained before and 2.5, 5, 10, 15, 30, 60, 120, and 180 min after injection. […] These doses were similar to doses of carperitide/nesiritide in clinical use.
(§4) Canine ANP1-28 and NT-proANP concentrations are determined by specific immunoassays as described elsewhere (Ichiki et al., Clin Chem, 2011, 57:40-47; Ichiki et al., 2012, supra; Chen et al., J Am Coll Cardiol, 2000, 35:240A; and Chen et al., Am J Physiol Regul Integr Comp Physiol, 2005, 288:R1093-1097).
(§5) The in vivo effects of canine proANP, ANP1-28, and BNP1-32 were examined in normal canines (FIG. 6).
Series [2] in a line: Hemodynamic and renal actions after bolus intravenous injection in normal canines. It counts as in vivo, canine.
Description: Blood samples were obtained from aorta and renal vein and urine is obtained before and 2.5, 5, 10, 15, 30, 60, 120, and 180 min after injection.
as §5
The nature of series [3]: Pharmacokinetic analysis of NP immunoreactivity after bolus intravenous injection in normal canines.
Description: as §3, §4, §5
In series [4] the test system is cGMP. Description: Plasma and urinary cGMP after bolus intravenous injection in normal canines. It counts as in vivo, canine. Particulars: for PcGMP AUC / PcGMP Cmax: plasma cGMP; for PcGMP AUC / PcGMP Cmax / UcGMP AUC / UcGMP Cmax: intravenous bolus 667 pmol/kg; for UcGMP AUC / UcGMP Cmax: urinary cGMP excretion. As to the method: (§1) The samples were ether extracted four times in 4 volumes of ether, dried, and reconstituted in 300 ul cGMP assay buffer, and the cGMP levels were measured using a competitive RIA cGMP kit (Perkin-Elmer, Boston, Mass.).

Series [5] is described as follows: Processing and degradation of His-tagged proANP in human serum ex vivo.
Description: Exogenous proANP was incubated in human serum at 37° C. Processed and unprocessed proANP peptides were isolated by immunoprecipitation using His-tag beads, followed by detection via Western blotting with 6×His antibody. […] FIG. 4C is a graph plotting densitometric analysis of processed ANP1-28 from proANP that was incubated in serum from normal subjects and HF patients for the indicated times. Values are mean±SEM. *p<0.05 vs. 0 min.
The target in series [6] is T1, GC-A (Homo sapiens, UniProt P16066).
T1 construct: expressed in transfected cells; host or cells: HEK293
T1 sequence (P16066 33-1061): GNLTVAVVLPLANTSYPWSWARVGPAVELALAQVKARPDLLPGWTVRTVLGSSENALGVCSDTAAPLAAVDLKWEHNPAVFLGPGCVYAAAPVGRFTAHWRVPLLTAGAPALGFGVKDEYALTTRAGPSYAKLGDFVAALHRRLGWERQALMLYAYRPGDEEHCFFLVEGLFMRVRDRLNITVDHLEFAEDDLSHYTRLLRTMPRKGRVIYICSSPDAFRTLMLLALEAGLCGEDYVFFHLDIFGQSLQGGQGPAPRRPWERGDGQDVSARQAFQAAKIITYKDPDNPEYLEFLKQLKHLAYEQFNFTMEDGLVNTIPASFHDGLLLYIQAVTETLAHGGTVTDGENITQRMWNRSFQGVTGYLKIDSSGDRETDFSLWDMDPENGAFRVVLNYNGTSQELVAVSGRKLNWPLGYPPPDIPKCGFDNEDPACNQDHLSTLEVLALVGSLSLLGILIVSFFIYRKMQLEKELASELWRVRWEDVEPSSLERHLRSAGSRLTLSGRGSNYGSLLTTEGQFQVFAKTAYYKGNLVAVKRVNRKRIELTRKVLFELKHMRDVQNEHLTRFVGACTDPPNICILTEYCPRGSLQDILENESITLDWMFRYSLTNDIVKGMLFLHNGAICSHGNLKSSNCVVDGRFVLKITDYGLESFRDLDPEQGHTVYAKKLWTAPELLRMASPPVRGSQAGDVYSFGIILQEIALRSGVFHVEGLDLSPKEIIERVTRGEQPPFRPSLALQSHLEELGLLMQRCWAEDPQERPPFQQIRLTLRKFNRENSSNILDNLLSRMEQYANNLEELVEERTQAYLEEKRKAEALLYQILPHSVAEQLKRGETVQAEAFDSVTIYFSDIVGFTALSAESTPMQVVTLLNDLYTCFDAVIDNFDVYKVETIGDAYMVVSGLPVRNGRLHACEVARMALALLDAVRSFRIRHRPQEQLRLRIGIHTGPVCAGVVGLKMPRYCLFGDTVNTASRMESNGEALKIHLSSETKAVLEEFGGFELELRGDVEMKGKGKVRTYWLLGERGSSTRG
Description: cGMP production in HEK293 cells overexpressing GC-A. It counts as cell-based.
Text: (§2) FIGS. 5A-5D depict proANP effects in vitro. FIG. 5A is a pair of graphs plotting cGMP production in GC-A or GC-B overexpressing HEK293 cells treated with proANP, proBNP, or mature ANP or BNP, as indicated. *p<0.05 vs. non-treated cells. FIG. 5B is a pair of graphs plotting cGMP production in GC-A or GC-B overexpressing HEK293 cells treated with proANP (10^−8 M) in serum or PBS, as indicated. *p<0.05 vs. non-treated cells. †p<0.05 vs. PBS-treated proANP. FIG. 5C is a series of photographs showing immunocytochemistry for collagen type I (Col I), GC-A, and corin in cardiac fibroblasts (CFs). NHS served as a negative control. Magnification is 100×. FIG. 5D is a graph plotting the time course of cGMP production in CFs treated with ANP or proANP (10^−7M). […] Data are mean±SEM.
as §1

Series [7] relates to human cardiac fibroblasts (CFs). Description: cGMP production in human cardiac fibroblasts. Format: cell-based. The conditions noted are these: 10^−7 M.
Text: as §2, §1
Further studies utilized human CFs in which GC-A and proANP convertase corin exist (FIG. 5C).

Where [8] appears, read: 667 pmol/kg intravenous, comparison of the three NPs.
Setting [9] is: normal canines, 667 pmol/kg intravenous.

As a reminder, the AUC is the area under the concentration-time curve, a measure of exposure. A low value points to less exposure. By Tmax is commonly meant the time from dosing to the highest level. Turning to `CC[C@H](C)[C@@H]1NC(=O)[C@H](CCCNC(=N)N)NC(=O)[C@H](CC(=O)O)NC(=O)[C@H](CCSC)NC(=O)[C@H](CCCNC(=N)N)NC(=O)CNC(=O)CNC(=O)[C@H](Cc2ccccc2)NC(=O)[C@@H](NC(=O)[C@H](CO)NC(=O)[C@H](CO)NC(=O)[C@H](CCCNC(=N)N)NC(=O)[C@H](CCCNC(=N)N)NC(=O)[C@H](CC(C)C)NC(=O)[C@@H](N)CO)CSSC[C@@H](C(=O)N[C@@H](CC(N)=O)C(=O)N[C@@H](CO)C(=O)N[C@@H](Cc2ccccc2)C(=O)N[C@@H](CCCNC(=N)N)C(=O)N[C@@H](Cc2ccc(O)cc2)C(=O)O)NC(=O)CNC(=O)[C@H](CC(C)C)NC(=O)CNC(=O)[C@H](CO)NC(=O)[C@H](CCC(N)=O)NC(=O)[C@H](C)NC(=O)CNC1=O` [ANP, atrial natriuretic peptide], in series [1], the area under the curve (AUC) is 0.2 nM·h and the Tmax is 2 min.
What is called Cmax is the peak of the concentration-time curve. One may read the half-life as the time in which the quantity being followed falls by half. High values mean slow loss, low ones fast loss. Turning to `CC[C@H](C)[C@@H]1NC(=O)[C@H](CCCNC(=N)N)NC(=O)[C@H](CC(=O)O)NC(=O)[C@H](CCSC)NC(=O)[C@H](CCCCN)NC(=O)[C@H](CCCNC(=N)N)NC(=O)CNC(=O)[C@H](Cc2ccccc2)NC(=O)[C@@H](NC(=O)CNC(=O)[C@H](CO)NC(=O)CNC(=O)[C@H](CCC(N)=O)NC(=O)[C@@H](NC(=O)[C@H](CCSC)NC(=O)[C@H](CCCCN)NC(=O)[C@@H]2CCCN2C(=O)[C@@H](N)CO)C(C)C)CSSC[C@@H](C(=O)N[C@@H](CCCCN)C(=O)N[C@H](C(=O)N[C@@H](CC(C)C)C(=O)N[C@@H](CCCNC(=N)N)C(=O)N[C@@H](CCCNC(=N)N)C(=O)N[C@@H](Cc2c[nH]cn2)C(=O)O)C(C)C)NC(=O)CNC(=O)[C@H](CC(C)C)NC(=O)CNC(=O)[C@H](CO)NC(=O)[C@H](CO)NC(=O)[C@H](CO)NC(=O)[C@H](CO)NC1=O` [BNP, B-type natriuretic peptide, reference compound], in series [2] (setting [8]), the “effect on blood pressure (BP)” value is listed as “greatest effect”. In series [3] (dog, plasma, iv, 667 pmol/kg), the exposure (AUC) is 0.0517 nM·h, the concentration peaked (Cmax) at 0.43 nM, the time of peak concentration (Tmax) was 2 min and the half-life came out at 3.7 min. Also, in series [3] (setting [9]), the “decline of plasma immunoreactivity after the peak” value was “decreased rapidly”. In addition, in series [4], the “PcGMP AUC” value was 13406.9 pmol·min/mL, the “PcGMP Cmax” value was 255.4 pmol/mL, the “UcGMP AUC” value was found to be 207454 pmol·min/mL and the “UcGMP Cmax” value was 6936.2 pmol/mL.

B1: proANP (protein, listed as Homo sapiens)
chain: NPMYNAVSNADLMDFKNLLDHLEEKMPLEDEVVPPQVLSEPNEEAGAALSPLPEVPPWTGEVSPAQRDGGALGRGPWDSSDRSALLKSKLRALLTAPRSLRRSSCFGGRMDRIGAQSGLGCNSFRY
modifications: His tag in serum
notes: 126 amino acid pro form of atrial natriuretic peptide
For B1, in series [2] (667 pmol/kg intravenous), the “effect on cardiac output” value is “less than that of either ANP or BNP” and the “effect on renal blood flow” value is on record as “less effect on renal blood flow”. In series [2] (setting [8]), the “diuretic and natriuretic actions (urine volume, urinary sodium excretion)” value is “strongest and longest”; the “effect on blood pressure (BP)” value was “less of an effect on BP as compared to the other two NPs”. Also, in series [2] (first 90 minutes, then increased by about 120 minutes), the “effect on heart rate” value is “less than that of ANP or BNP”. Further, the “NPi AUC” value in series [3] (NP immunoreactivity, normal canines, equimolar intravenous bolus 667 pmol/kg) was found to be 28.1 pmol·min/mL. Also, in series [3] (setting [9]), the “AUC for NP immunoreactivity relative to ANP” value is “twice that of ANP”, the “decline of plasma immunoreactivity after the peak” value is “decreased more slowly than ANP or BNP” and the “time of peak plasma immunoreactivity after injection” value came to 2 min. Besides, the half-life in series [3] (normal canines, equimolar intravenous bolus 667 pmol/kg) was 20.7 min. The “half-life relative to ANP” value in series [3] (normal canines, pharmacokinetic analysis) is recorded as “about 4 times”. Also, the Cmax in series [3] (read-out: NPi Cmax, NP immunoreactivity, normal canines, equimolar intravenous bolus 667 pmol/kg) stood at 0.96 nM. In addition, the “processing of proANP in normal human serum” value in series [5] (His-tagged proANP, 37° C., 5 minute incubation, normal serum) is recorded as “processed into ANP1-28”. Moreover, the “proANP processing into ANP1-28 in HF serum compared to normals” value in series [5] (serum from HF patients) is reported as “preserved”. In addition, in series [4] (667 pmol/kg intravenous), the “AUC for plasma cGMP (PcGMP) relative to ANP or BNP” value is given as “less than that for ANP or BNP” and the “AUC for urinary cGMP excretion (UcGMP) relative to ANP or BNP” value is given as “twice that of ANP or BNP”. Moreover, in series [4], the “PcGMP AUC” value is 6110.5 pmol·min/mL, the “PcGMP Cmax” value turned out to be 93.8 pmol/mL, the “UcGMP AUC” value was determined as 420368 pmol·min/mL and the “UcGMP Cmax” value came to 7027.8 pmol/mL. The cGMP production entry in series [6] (HEK293 cells overexpressing GC-A) is recorded as “lower than ANP but much higher than proBNP”. The “cGMP production by proANP treated in serum for 5 minutes” value in series [6] (proANP 10^−8 M, treated in serum 5 minutes, versus untreated proANP) is recorded as “stimulated cGMP production significantly as compared to untreated proANP”. For the same molecule, the “cGMP production by proANP treated in serum for 180 minutes” value in series [6] (proANP 10^−8 M, treated in serum 180 minutes) was “decreased”. For the same molecule, the “cGMP production relative to ANP” value in series [7] (after 60 minutes) is on record as “about equal”. Besides, the “cGMP levels compared to 0 minutes” value in series [7] (all time points) is recorded as “significant increases in cGMP levels”. Besides, the “cGMP production relative to ANP” value in series [7] (first 30 minutes) is given as “about half as much as ANP”.
